Laboratory results taken from patent publication US20240200091A1, “USE OF PROTOPORPHYRINOGEN OXIDASE” (BEIJING DABEINONG BIOTECHNOLOGY CO., LTD., priority 2021, published 2024).

Columns and labels:
Type in all cases: in vivo
Conditions in all cases: 7 DAT, number of plants of 24 per genotype, grades
[1] = tested on: Arabidopsis thaliana T1 plants; test: saflufenacil tolerance of transgenic Arabidopsis thaliana T1 plants (spray, grade of pesticide damage)
In short: (§1)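 Herbicide rates in g ai/ha are as follows: oxyfluorfen 180 or 720, saflufenacil 25 or 100, flumioxazin 60 or 240, sulfentrazone 450 or 900, each against a water control. Sprays go onto PPO-transgenic T1 plants at 18 days. At 7 DAT, leaf-area injury is graded 0–3, with grades 0–1 counted as highly resistant.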

[2] = tested on: Arabidopsis thaliana T1 plants; test: sulfentrazone tolerance of transgenic Arabidopsis thaliana T1 plants (spray, grade of pesticide damage)
In short: as §1

[3] = tested on: Arabidopsis thaliana T1 plants; test: flumioxazin tolerance of transgenic Arabidopsis thaliana T1 plants (spray, grade of pesticide damage)
In short: as §1

[4] = tested on: Arabidopsis thaliana T1 plants; test: oxyfluorfen tolerance of transgenic Arabidopsis thaliana T1 plants (spray, grade of pesticide damage)
In short: as §1

Molecule	The grade of pesticide damage/plant: grade 0 ([1]; saflufenacil 25 g ai/ha (1×))	The grade of pesticide damage/plant: grade 1 ([1]; saflufenacil 25 g ai/ha (1×))	The grade of pesticide damage/plant: grade 2 ([1]; saflufenacil 25 g ai/ha (1×))	The grade of pesticide damage/plant: grade 3 ([1]; saflufenacil 25 g ai/ha (1×))	The grade of pesticide damage/plant: grade 0 ([1]; saflufenacil 100 g ai/ha (4×))	The grade of pesticide damage/plant: grade 1 ([1]; saflufenacil 100 g ai/ha (4×))	The grade of pesticide damage/plant: grade 2 ([1]; saflufenacil 100 g ai/ha (4×))	The grade of pesticide damage/plant: grade 3 ([1]; saflufenacil 100 g ai/ha (4×))	The grade of pesticide: grade 0 ([2]; sulfentrazone 450 g ai/ha (1×))	The grade of pesticide: grade 1 ([2]; sulfentrazone 450 g ai/ha (1×))	The grade of pesticide: grade 2 ([2]; sulfentrazone 450 g ai/ha (1×))	The grade of pesticide: grade 3 ([2]; sulfentrazone 450 g ai/ha (1×))	The grade of pesticide: grade 0 ([2]; sulfentrazone 900 g ai/ha (2×))	The grade of pesticide: grade 1 ([2]; sulfentrazone 900 g ai/ha (2×))	The grade of pesticide: grade 2 ([2]; sulfentrazone 900 g ai/ha (2×))	The grade of pesticide: grade 3 ([2]; sulfentrazone 900 g ai/ha (2×))	The grade of pesticide damage/plant: grade 0 ([3]; flumioxazin 60 g ai/ha (1×))	The grade of pesticide damage/plant: grade 1 ([3]; flumioxazin 60 g ai/ha (1×))	The grade of pesticide damage/plant: grade 2 ([3]; flumioxazin 60 g ai/ha (1×))	The grade of pesticide damage/plant: grade 3 ([3]; flumioxazin 60 g ai/ha (1×))	further results
PPO9A: nucleotide sequence encoding microbial protoporphyrinogen oxidase PPO9 (SEQ ID NO:9), Arabidopsis thaliana/soybean common codon usage bias (nucleic acid, The nucleotide sequence of PPO9A) DNA: ATGGAGAAAGTTCTTCTACTGCATTCTTCCTCTGATGGTCAGACAGTGAAGATTCTCAGACATATTGAAACAACATTAGGTGGTGATTACCAATGTGAGCTTGTGGATTTGAATACTCTGCCGACTGTTGATTTTGCTGATTATGACCGTGTCTTAGTAGGCGCGAGTATACGCTATGGGCACCTCAACAAGAAACTCTACCAGTTTATAGAGAGATACAGAGATGAATTGGACCAAAACAAAGTAGGTTTCTTCTGCGTGAATCTTACTGCAAGGAAAGAAGGAAAGAATACGCCTGAGACTAGCGTTTACATGAAGACCTTTTTGAAGAAGTCGCCATGGTGTCCAAAATTGCAAGAAGTTTTCGCTGGAGCTCTTCGTTATCCTCGGTATGGATGGTTTGATAGGGTCATGATTCAGTTCATCATGAGAATCACGGGGGGAGAAACCGACACATCAAAAGAGGTTGAGTATACTGATTGGCAAAAGGTTGAAGCTTTTGCAGCCCGATTCAAACATTACTGA	24 plant	0 plant	0 plant	0 plant	0 plant	24 plant	0 plant	0 plant	24	0	0	0	18	6	0	0	24 plant	0 plant	0 plant	0 plant	The grade of pesticide damage/plant: grade 0 ([3]; flumioxazin 240 g ai/ha (4×)): 24 plant; The grade of pesticide damage/plant: grade 1 ([3]; flumioxazin 240 g ai/ha (4×)): 0 plant; The grade of pesticide damage/plant: grade 2 ([3]; flumioxazin 240 g ai/ha (4×)): 0 plant; The grade of pesticide damage/plant: grade 3 ([3]; flumioxazin 240 g ai/ha (4×)): 0 plant; The grade of pesticide damage/plant: grade 0 ([4]; oxyfluorfen 180 g ai/ha (1×)): 24 plant; The grade of pesticide damage/plant: grade 1 ([4]; oxyfluorfen 180 g ai/ha (1×)): 0 plant; The grade of pesticide damage/plant: grade 2 ([4]; oxyfluorfen 180 g ai/ha (1×)): 0 plant; The grade of pesticide damage/plant: grade 3 ([4]; oxyfluorfen 180 g ai/ha (1×)): 0 plant; The grade of pesticide damage/plant: grade 0 ([4]; oxyfluorfen 720 g ai/ha (4×)): 20 plant; The grade of pesticide damage/plant: grade 1 ([4]; oxyfluorfen 720 g ai/ha (4×)): 4 plant; The grade of pesticide damage/plant: grade 2 ([4]; oxyfluorfen 720 g ai/ha (4×)): 0 plant; The grade of pesticide damage/plant: grade 3 ([4]; oxyfluorfen 720 g ai/ha (4×)): 0 plant
PPO7A: nucleotide sequence encoding microbial protoporphyrinogen oxidase PPO7 (SEQ ID NO:7), Arabidopsis thaliana/soybean common codon usage bias (nucleic acid, The nucleotide sequence of PPO7A) DNA: ATGGATAAGATATTAGTCCTGTACAGTAGTCAAGATGGGCAGACGAGGAAGATTGTTGATGCAATGCTTGAAGAAATCTCTGGTTGTGATGTTGTGATTCAAGACTTGCACACACTACCGAAATGCAACCTATCCAAATATGCGAAAGTGTTGATTGGTGCTTCCATAAGGTATGGAAACTTCCATCCTTCTCTTCTCAGCTTCATCAATGCTCATCATGAACAACTTGAGGTTGCTAATGCGGCCTTCTTCTGTGTAAATCTCACTGCCCGAAAACCTGAGAAGCAAACTCCCCAGACAAACGCTTACATGAAGAAGTTTTTACGCTTATCACCATGGAAACCAAAGACCCTTGGAGTGTTTGCAGGAGCTTTGCAATATTCAAGATACAATTGGTGGCAAACCCGTATCATTCAGCTGATAATGAAAATGACTGGTGGCTCAACAGACACATCTCAGGATTTGGAGTTTACTGATTGGGTTAAAGTCCGGTCGTTTGCAAGAGAATTTTGGAGCAAGAGATGA	24 plant	0 plant	0 plant	0 plant	4 plant	20 plant	0 plant	0 plant	24	0	0	0	22	2	0	0	24 plant	0 plant	0 plant	0 plant	The grade of pesticide damage/plant: grade 0 ([3]; flumioxazin 240 g ai/ha (4×)): 24 plant; The grade of pesticide damage/plant: grade 1 ([3]; flumioxazin 240 g ai/ha (4×)): 0 plant; The grade of pesticide damage/plant: grade 2 ([3]; flumioxazin 240 g ai/ha (4×)): 0 plant; The grade of pesticide damage/plant: grade 3 ([3]; flumioxazin 240 g ai/ha (4×)): 0 plant; The grade of pesticide damage/plant: grade 0 ([4]; oxyfluorfen 180 g ai/ha (1×)): 24 plant; The grade of pesticide damage/plant: grade 1 ([4]; oxyfluorfen 180 g ai/ha (1×)): 0 plant; The grade of pesticide damage/plant: grade 2 ([4]; oxyfluorfen 180 g ai/ha (1×)): 0 plant; The grade of pesticide damage/plant: grade 3 ([4]; oxyfluorfen 180 g ai/ha (1×)): 0 plant; The grade of pesticide damage/plant: grade 0 ([4]; oxyfluorfen 720 g ai/ha (4×)): 20 plant; The grade of pesticide damage/plant: grade 1 ([4]; oxyfluorfen 720 g ai/ha (4×)): 4 plant; The grade of pesticide damage/plant: grade 2 ([4]; oxyfluorfen 720 g ai/ha (4×)): 0 plant; The grade of pesticide damage/plant: grade 3 ([4]; oxyfluorfen 720 g ai/ha (4×)): 0 plant
